Experiments:
cross-linking = target: the molecule itself; experiment: cross-linking
Ribosomal protein L29 = Ribosomal protein L29 (Escherichia coli (endogenous in …, UniProt P0A7M6 1-63)); experiment: cross-linking

binding result (Ribosomal protein L29): binds
B1: DnaJ, recombinant (natural protein, Escherichia coli, UniProt P08622 1-376, looked up)
chain: MAKQDYYEILGVSKTAEEREIRKAYKRLAMKYHPDRNQGDKEAEAKFKEIKEAYEVLTDSQKRAAYDQYGHAAFEQGGMGGGGFGGGADFSDIFGDVFGDIFGGGRGRQRAARGADLRYNMELTLEEAVRGVTKEIRIPTLEECDVCHGSGAKPGTQPQTCPTCHGSGQVQMRQGFFAVQQTCPHCQGRGTLIKDPCNKCHGHGRVERSKTLSVKIPAGVDTGDRIRLAGEGEAGEHGAPAGDLYVQVQVKQHPIFEREGNNLYCEVPINFAMAALGGEIEVPTLDGRVKLKVPGETQTGKLFRMRGKGVKSVRGGAQGDLLCRVVVETPVGLNERQKQLLQELQESFGGPTGEHNSPRSKSFFDGVKKFFDDLTR
binding result (cross-linking): binds

Source: doi:10.1101/2024.01.22.576655 (bioRxiv, 2024)
